# Results as given in US20180072807A1 (UNIVERSITAT STUTTGART, published 2018).
# B1: EGFR-specific TRAIL fusion protein of SEQ ID NO: 96 (FLAG tag, huC225 VH, (GGGGS)3 linker L, VL, linker X, scTRAIL) (other)
# chain: LEASDYKDDDDKGAEVQLVESGGGLVQPGGSLRLSCAASGFSLTNYGVHWVRQAPGKGLEWLGVIWSGGNTDYNTPFTSRFTISRDNSKNTLYLQMNSLRAEDTAVYYCARALTYYDYEFAYWGQGTTVTVSSGGGGSGGGGSGGGGSDIQLTQSPSFLSASVGDRVTITCRASQSIGTNIHWYQQKPGKAPKLLIKYASESISGVPSRFSGSGSGTEFTLTISSLQPEDFATYYCQQNNNWPTTFGAGTKLEIKRAAAEFTRGTSEETISTVQEKQQNISPLVRERGPQRVAAHITGTRGRSNTLSSPNSKNEKALGRKINSWESSRSGHSFLSNLHLRNGELVIHEKGFYYIYSQTYFRFQEEIKENTKNDKQMVQYIYKYTSYPDPILLMKSARNSCWSKDAEYGLYSIYQGGIFELKENDRIFVSVTNEHLIDMDHEASFFGAFLVGGGGSGGGSTSEETISTVQEKQQNISPLVRERGPQRVAAHITGTRGRSNTLSSPNSKNEKALGRKINSWESSRSGHSFLSNLHLRNGELVIHEKGFYYIYSQTYFRFQEEIKENTKNDKQMVQYIYKYTSYPDPILLMKSARNSCWSKDAEYGLYSIYQGGIFELKENDRIFVSVTNEHLIDMDHEASFFGAFLVGGGGSGGGSTSEETISTVQEKQQNISPLVRERGPQRVAAHITGTRGRSNTLSSPNSKNEKALGRKINSWESSRSGHSFLSNLHLRNGELVIHEKGFYYIYSQTYFRFQEEIKENTKNDKQMVQYIYKYTSYPDPILLMKSARNSCWSKDAEYGLYSIYQGGIFELKENDRIFVSVTNEHLIDMDHEASFFGAFLVG
# notes: also called VH-VL-scTRAIL
# B2: EGFR-specific TRAIL fusion protein according to SEQ ID NO: 102 (FLAG tag, huC225 VH, GGGGS linker L, VL, linker X, scTRAIL) (other)
# chain: LEASDYKDDDDKGAEVQLVESGGGLVQPGGSLRLSCAASGFSLTNYGVHWVRQAPGKGLEWLGVIWSGGNTDYNTPFTSRFTISRDNSKNTLYLQMNSLRAEDTAVYYCARALTYYDYEFAYWGQGTTVTVSSGGGGSDIQLTQSPSFLSASVGDRVTITCRASQSIGTNIHWYQQKPGKAPKLLIKYASESISGVPSRFSGSGSGTEFTLTISSLQPEDFATYYCQQNNNWPTTFGAGTKLEIKRAAAEFTRGTSEETISTVQEKQQNISPLVRERGPQRVAAHITGTRGRSNTLSSPNSKNEKALGRKINSWESSRSGHSFLSNLHLRNGELVIHEKGFYYIYSQTYFRFQEEIKENTKNDKQMVQYIYKYTSYPDPILLMKSARNSCWSKDAEYGLYSIYQGGIFELKENDRIFVSVTNEHLIDMDHEASFFGAFLVGGGGSGGGSTSEETISTVQEKQQNISPLVRERGPQRVAAHITGTRGRSNTLSSPNSKNEKALGRKINSWESSRSGHSFLSNLHLRNGELVIHEKGFYYIYSQTYFRFQEEIKENTKNDKQMVQYIYKYTSYPDPILLMKSARNSCWSKDAEYGLYSIYQGGIFELKENDRIFVSVTNEHLIDMDHEASFFGAFLVGGGGSGGGSTSEETISTVQEKQQNISPLVRERGPQRVAAHITGTRGRSNTLSSPNSKNEKALGRKINSWESSRSGHSFLSNLHLRNGELVIHEKGFYYIYSQTYFRFQEEIKENTKNDKQMVQYIYKYTSYPDPILLMKSARNSCWSKDAEYGLYSIYQGGIFELKENDRIFVSVTNEHLIDMDHEASFFGAFLVG
# notes: Made in HEK293 cells; The FLAG tag was kept for purification; also called divalent TRAIL fusion protein; dimeric TRAIL fusion protein
# B3: dimeric EGFR-specific TRAIL fusion protein of SEQ ID NO: 125 with an albumin binding domain (ABD) between component B and components A (other)
# chain: LEASDYKDDDDKGAEVQLVESGGGLVQPGGSLRLSCAASGFSLTNYGVHWVRQAPGKGLEWLGVIWSGGNTDYNTPFTSRFTISRDNSKNTLYLQMNSLRAEDTAVYYCARALTYYDYEFAYWGQGTTVTVSSGGGGSDIQLTQSPSFLSASVGDRVTITCRASQSIGTNIHWYQQKPGKAPKLLIKYASESISGVPSRFSGSGSGTEFTLTISSLQPEDFATYYCQQNNNWPTTFGAGTKLEIKRGGSQHDEAVDANSLAEAKVLANRELDKYGVSDYYKNLINNAKTVEGVKALIDEILAALPAAAGNGTSNGTSEFTRGTSEETISTVQEKQQNISPLVRERGPQRVAAHITGTRGRSNTLSSPNSKNEKALGRKINSWESSRSGHSFLSNLHLRNGELVIHEKGFYYIYSQTYFRFQEEIKENTKNDKQMVQYIYKYTSYPDPILLMKSARNSCWSKDAEYGLYSIYQGGIFELKENDRIFVSVTNEHLIDMDHEASFFGAFLVGGGGSGGGSTSEETISTVQEKQQNISPLVRERGPQRVAAHITGTRGRSNTLSSPNSKNEKALGRKINSWESSRSGHSFLSNLHLRNGELVIHEKGFYYIYSQTYFRFQEEIKENTKNDKQMVQYIYKYTSYPDPILLMKSARNSCWSKDAEYGLYSIYQGGIFELKENDRIFVSVTNEHLIDMDHEASFFGAFLVGGGGSGGGSTSEETISTVQEKQQNISPLVRERGPQRVAAHITGTRGRSNTLSSPNSKNEKALGRKINSWESSRSGHSFLSNLHLRNGELVIHEKGFYYIYSQTYFRFQEEIKENTKNDKQMVQYIYKYTSYPDPILLMKSARNSCWSKDAEYGLYSIYQGGIFELKENDRIFVSVTNEHLIDMDHEASFFGAFLVG
# B4: dimeric EGFR-specific TRAIL fusion protein of SEQ ID NO: 126 with an albumin binding domain (ABD) at the C-terminus (other)
# chain: LEASDYKDDDDKGAEVQLVESGGGLVQPGGSLRLSCAASGFSLTNYGVHWVRQAPGKGLEWLGVIWSGGNTDYNTPFTSRFTISRDNSKNTLYLQMNSLRAEDTAVYYCARALTYYDYEFAYWGQGTTVTVSSGGGGSDIQLTQSPSFLSASVGDRVTITCRASQSIGTNIHWYQQKPGKAPKLLIKYASESISGVPSRFSGSGSGTEFTLTISSLQPEDFATYYCQQNNNWPTTFGAGTKLEIKRAAAGNGTSNGTSEFTRGTSEETISTVQEKQQNISPLVRERGPQRVAAHITGTRGRSNTLSSPNSKNEKALGRKINSWESSRSGHSFLSNLHLRNGELVIHEKGFYYIYSQTYFRFQEEIKENTKNDKQMVQYIYKYTSYPDPILLMKSARNSCWSKDAEYGLYSIYQGGIFELKENDRIFVSVTNEHLIDMDHEASFFGAFLVGGGGSGGGSTSEETISTVQEKQQNISPLVRERGPQRVAAHITGTRGRSNTLSSPNSKNEKALGRKINSWESSRSGHSFLSNLHLRNGELVIHEKGFYYIYSQTYFRFQEEIKENTKNDKQMVQYIYKYTSYPDPILLMKSARNSCWSKDAEYGLYSIYQGGIFELKENDRIFVSVTNEHLIDMDHEASFFGAFLVGGGGSGGGSTSEETISTVQEKQQNISPLVRERGPQRVAAHITGTRGRSNTLSSPNSKNEKALGRKINSWESSRSGHSFLSNLHLRNGELVIHEKGFYYIYSQTYFRFQEEIKENTKNDKQMVQYIYKYTSYPDPILLMKSARNSCWSKDAEYGLYSIYQGGIFELKENDRIFVSVTNEHLIDMDHEASFFGAFLVGGGSGGQHDEAVDANSLAEAKVLANRELDKYGVSDYYKNLINNAKTVEGVKALIDEILAALP
# How the values were obtained:
# [1] = biological target: T1, proapoptotic TRAIL receptor DR4 (TRAIL R1) (UniProt O00220 24-468, limits assumed); test: flow cytometry on EGFR low/negative HepG2 cells; detection with anti-TRAIL mAb
# T1 construct: whole, on cells; Endogenous receptor on cell lines
# [2] = biological target: EGF receptor (EGFR, erbB1) (human, UniProt P00533 25-1210); test: cell-based or functional assay
# mouse serum albumin = biological target: T2, mouse serum albumin (mouse, UniProt P07724 25-608); test: size exclusion chromatography after incubation with albumin
# T2 construct: also called MSA
# human serum albumin = biological target: T3, human serum albumin (human, UniProt P02768 25-609); test: as above
# T3 construct: also called HSA
Binder,binding result [1],apoptosis-inducing activity on EGFR-positive Huh-7 cells compared to scTRAIL (SEQ ID NO: 104) [2],binding result (mouse serum albumin),binding result (human serum albumin)
B1,binds,10 fold,–,–
B2,binds,–,–,–
B3,–,–,binds,binds
B4,–,–,binds,binds
